From IntAct's records for PubMed 23615222

B1: Thioredoxin H1 (Arabidopsis thaliana (Mouse-ear cress)), P29448 (parent)
chain: MASEEGQVIACHTVETWNEQLQKANESKTLVVVDFTASWCGPCRFIAPFFADLAKKLPNVLFLKVDTDELKSVASDWAIQAMPTFMFLKEGKILDKVVGAKKDELQSTIAKHLA

Variants of: B1
Conditions: with cdpkl_arath CPK21, Q9ZSA2
cdpkl_arath CPK21, Q9ZSA2, sequence (Q9ZSA2 whole entry): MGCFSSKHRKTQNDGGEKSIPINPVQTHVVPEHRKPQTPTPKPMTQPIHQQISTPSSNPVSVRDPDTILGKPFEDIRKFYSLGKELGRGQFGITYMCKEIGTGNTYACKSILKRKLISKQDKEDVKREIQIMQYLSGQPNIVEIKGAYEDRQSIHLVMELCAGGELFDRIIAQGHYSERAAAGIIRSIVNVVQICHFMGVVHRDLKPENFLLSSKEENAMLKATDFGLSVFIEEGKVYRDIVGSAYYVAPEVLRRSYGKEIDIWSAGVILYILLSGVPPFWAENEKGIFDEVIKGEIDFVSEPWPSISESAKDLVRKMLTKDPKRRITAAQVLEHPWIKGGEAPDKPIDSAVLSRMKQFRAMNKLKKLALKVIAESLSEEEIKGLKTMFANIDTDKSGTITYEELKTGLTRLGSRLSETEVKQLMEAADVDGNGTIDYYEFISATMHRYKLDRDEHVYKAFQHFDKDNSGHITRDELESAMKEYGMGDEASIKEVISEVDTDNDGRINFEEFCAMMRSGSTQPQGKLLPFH

effect of a mutation on the interaction | Variant
increasing interaction | MASEEGQVIACHTVETWNEQLQKANESKTLVVVDFTASWCGPSRFIAPFFADLAKKLPNVLFLKVDTDELKSVASDWAIQAMPTFMFLKEGKILDKVVGAKKDELQSTIAKHLA [C43S]
